Source: US20210403506A1 (XDCEXPLORER SHANGHAI, published 2021)
Square brackets hold non-standard residues; d marks the D form. Ends that are not written are not given here. * marks the point of attachment. Pro(diF) = difluoro-proline, as coded in the source; DiMe = N,N-dimethyl (N-terminal dimethylation); Bpa = N[C@@H](Cc1ccc(C(=O)c2ccccc2)cc1)C(=O)O; PEG8 = NCCOCCOCCOCCOCCOCCOCCOCCOCCC(=O)O; Phe(4-Cl) = N[C@@H](Cc1ccc(Cl)cc1)C(=O)O; Phe(4-Me) = Cc1ccc(C[C@H](N)C(=O)O)cc1; dOic = O=C(O)[C@H]1C[C@H]2CCCC[C@H]2N1; 1Nal = N[C@@H](Cc1cccc2ccccc12)C(=O)O; 2Nal = N[C@@H](Cc1ccc2ccccc2c1)C(=O)O; dNMeY = CN[C@H](Cc1ccc(O)cc1)C(=O)O; Hydrocinnamoyl = O=C(CCc1ccccc1)*; NMehLeu = CN[C@@H](CCC(C)C)C(=O)O; Palmitoyl = CCCCCCCCCCCCCCCC(=O)*; Hyp = O=C(O)[C@@H]1C[C@@H](O)CN1; NMeF = CN[C@@H](Cc1ccccc1)C(=O)O; 3‑phenylpropyl = c1ccc(CCC*)cc1; Myristoyl = CCCCCCCCCCCCCC(=O)*; Tic = O=C(O)[C@@H]1Cc2ccccc2CN1; dTic = O=C(O)[C@H]1Cc2ccccc2CN1; NMeL = CN[C@@H](CC(C)C)C(=O)O; Lauroyl = CCCCCCCCCCCC(=O)*; NMeS = CN[C@@H](CO)C(=O)O; Hexanoyl = CCCCCC(=O)*; βAla = NCCC(=O)O

T1: human Chemokine like receptor 1 (human, UniProt Q99788 1-373)
T1 sequence (looked up): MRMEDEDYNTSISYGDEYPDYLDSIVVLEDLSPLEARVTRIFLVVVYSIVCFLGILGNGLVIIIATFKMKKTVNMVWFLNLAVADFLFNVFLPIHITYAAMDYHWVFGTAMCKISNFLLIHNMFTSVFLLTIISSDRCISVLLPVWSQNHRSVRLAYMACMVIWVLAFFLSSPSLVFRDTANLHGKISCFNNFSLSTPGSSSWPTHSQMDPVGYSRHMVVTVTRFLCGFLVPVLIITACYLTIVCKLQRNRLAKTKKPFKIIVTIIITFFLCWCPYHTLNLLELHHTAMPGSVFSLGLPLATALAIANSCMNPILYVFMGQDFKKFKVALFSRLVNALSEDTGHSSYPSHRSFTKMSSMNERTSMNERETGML

B1: YW-101 (peptide)
peptide: [dY]F[NMehLeu]P[dS]QF[dA][Tic]S-OH
modifications: N-terminus assumed
SMILES: CC(C)CC[C@@H](C(=O)N1CCC[C@H]1C(=O)N[C@H](CO)C(=O)N[C@@H](CCC(N)=O)C(=O)N[C@@H](Cc1ccccc1)C(=O)N[C@H](C)C(=O)N1Cc2ccccc2C[C@H]1C(=O)N[C@@H](CO)C(=O)O)N(C)C(=O)[C@H](Cc1ccccc1)NC(=O)[C@H](N)Cc1ccc(O)cc1
B2: YW-105 (peptide)
peptide: [dY][NMeF][NMeL]P[dS]QF[dA][Tic]S-OH
modifications: N-terminus assumed
SMILES: CC(C)C[C@@H](C(=O)N1CCC[C@H]1C(=O)N[C@H](CO)C(=O)N[C@@H](CCC(N)=O)C(=O)N[C@@H](Cc1ccccc1)C(=O)N[C@H](C)C(=O)N1Cc2ccccc2C[C@H]1C(=O)N[C@@H](CO)C(=O)O)N(C)C(=O)[C@H](Cc1ccccc1)N(C)C(=O)[C@H](N)Cc1ccc(O)cc1
B3: YW-190 (peptide)
peptide: [dY]F[NMeL]P[dS]QF[dA]XS-NH2
modifications: not fully specified (residue 9); printed as (D-Tyr)-Phe-(NMe-Leu)-Pro-(D-Ser)-Gln-Phe-(D-Ala)-Tic-Ser-NH2
B4: YW-111 (peptide)
peptide: Hydrocinnamoyl-[dY]F[NMeL]P[dS]QF[dA][Tic]S-OH
SMILES: CC(C)C[C@@H](C(=O)N1CCC[C@H]1C(=O)N[C@H](CO)C(=O)N[C@@H](CCC(N)=O)C(=O)N[C@@H](Cc1ccccc1)C(=O)N[C@H](C)C(=O)N1Cc2ccccc2C[C@H]1C(=O)N[C@@H](CO)C(=O)O)N(C)C(=O)[C@H](Cc1ccccc1)NC(=O)[C@@H](Cc1ccc(O)cc1)NC(=O)CCc1ccccc1

Molecular target: T1, human Chemokine like receptor 1
Experiment: cell-based or functional assay

Binder | EC50 (µM), activation of Tango CMKLR1-bla U2OS cells
[dY][Bpa][NMeL]P[dS]QF[dA][Tic]S [YW-201] | 0.076 µM
B1 | 0.0029 µM
[dY]F[NMeL]P[dS]QF[dA][Phe(4-Me)]S [YW-205] | 0.0062 µM
{3‑phenylpropyl}-[dY]F[NMeL]P[dS]QF[dA][Tic]S-OH [YW-207] | 0.00092 µM
[dY]F[NMeL]P[dS]QF[dA][Phe(4-Cl)]S [YW-206] | 0.009 µM
{4‑(trifluoromethyl)benzoyl}-[dY]F[NMeL]P[dS]QF[dA][Tic]S-OH [YW-195] | 0.0008 µM
[dY]F[NMeL][Hyp][dS]QF[dA][Tic]S [YW-198] | 0.0053 µM
B2 | 0.0106 µM
[dY]F[NMeL]P[dHoSer]QF[dA][Tic]S-OH [YW-175] | 0.091 µM
Hydrocinnamoyl-[dY]F[NEtL]P[dS]QF[dA][Tic]S [YW-185] | 0.0059 µM
[dY][Phe(4-Cl)][NMeL]P[dS]QF[dA][Tic]S [YW-203] | 0.0082 µM
B3 | 0.0027 µM
{Palmitoyl-PEG8}-GG[dNMeY]F[NMeL]P[dS]Q[2Nal][dA][Tic][NMeS] [YW-178] | 0.0021 µM
{Myristoyl-PEG8}-[βAla][βAla][dNMeY]F[NMeL]P[dS]Q[2Nal][dA][Tic][NMeS] [YW-180] | 0.0014 µM
[dY][2Nal][NMeL]P[dS]QF[dA][Tic]S [YW-200] | 0.019 µM
Hexanoyl-[dY]F[NMeL]P[dS]QF[dA][Tic]S [YW-193] | 0.0014 µM

Binder | EC50 (µM), activation of Tango CMKLR1-bla U2OS cells
[dY]F[NMeL]P[dT]QF[dA][Tic]S [YW-204] | 0.062 µM
[dY]F[NMeL]P[dS]QF[dA][Tic][NMeHoSer]-OH [YW-177] | 0.025 µM
B4 | 0.002 µM
{2‑cyclohexylacetyl}-[dY]F[NMeL]P[dS]QF[dA][Tic]S [YW-194] | 0.0012 µM
Hydrocinnamoyl-[dY]F[NPrL]P[dS]QF[dA][Tic]S [YW-186] | 0.011 µM
[dY]F[NMeL][Pro(diF)][dS]QF[dA][Tic]S-OH [YW-174] | 0.0012 µM
{Palmitoyl-PEG8}-[βAla][βAla][dNMeY]F[NMeL]P[dS]Q[2Nal][dA][Tic][NMeS] [YW-179] | 0.0021 µM
[dY]F[NEtL]P[dS]QF[dA][Tic]S [YW-183] | 0.0092 µM
DiMe-[dY]F[NMeL]P[dS]QF[dA][Tic]S [YW-192] | 0.0026 µM
[dY]F[NMeL]P[dS]QF[dA][dOic]S-OH [YW-176] | 0.0038 µM
{Lauroyl-PEG8}-[βAla][βAla][dNMeY]F[NMeL]P[dS]Q[2Nal][dA][Tic][NMeS] [YW-181] | 0.0022 µM
[dY][Phe(4-Me)][NMeL]P[dS]QF[dA][Tic]S [YW-202] | 0.0064 µM
[dY][1Nal][NMeL]P[dS]QF[dA][Tic]S [YW-199] | 0.0029 µM
[dY]F[NPrL]P[dS]QF[dA][Tic]S [YW-184] | 0.016 µM
[dY]F[NMeL]P[dS]QF[dA][dTic][NMeS] [YW-182] | 0.041 µM
